Experimental data taken from US20250313605A1.
*1 amine or outer side, *2 acyl side, *3 side chain or, on linkers, in order; H or OH if unused. Where no end group is shown, it is not given here. Side-chain parts run from the residue outwards. [ ]: non-standard residue; d: D form. The star is where a group is joined. C20 diacid = O=C(O)CCCCCCCCCCCCCCCCCCC(=O)*; γGlu = O=C(O)[C@H](CCC(=O)[*:2])N[*:1]; αMeL = CC(C)C[C@](C)(N)C(=O)O; αMeK = C[C@](N)(CCCCN)C(=O)O; AEEA = NCCOCCOCC(=O)O; Aib = CC(C)(N)C(=O)O

Key:
[1] = molecular target: T1, human GLP-1 receptor (human), P43220; experiment: cell-based or functional assay
T1 chain: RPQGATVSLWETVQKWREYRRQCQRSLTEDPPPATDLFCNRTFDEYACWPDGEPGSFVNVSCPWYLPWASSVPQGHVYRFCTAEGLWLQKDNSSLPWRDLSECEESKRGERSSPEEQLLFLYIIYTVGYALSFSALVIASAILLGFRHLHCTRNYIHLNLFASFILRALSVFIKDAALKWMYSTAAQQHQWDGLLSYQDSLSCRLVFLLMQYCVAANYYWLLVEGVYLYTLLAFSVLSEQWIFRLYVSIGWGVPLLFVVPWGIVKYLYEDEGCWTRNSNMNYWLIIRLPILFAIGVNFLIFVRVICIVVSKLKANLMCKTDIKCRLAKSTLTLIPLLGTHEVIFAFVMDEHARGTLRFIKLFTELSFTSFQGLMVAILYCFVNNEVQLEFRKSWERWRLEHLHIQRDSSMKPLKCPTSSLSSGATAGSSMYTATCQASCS

[2] = molecular target: human glucagon receptor (human), P47871; experiment: cell-based or functional assay
[3] = molecular target: T2, human GIP receptor (human), P48546; experiment: cell-based or functional assay
T2 chain: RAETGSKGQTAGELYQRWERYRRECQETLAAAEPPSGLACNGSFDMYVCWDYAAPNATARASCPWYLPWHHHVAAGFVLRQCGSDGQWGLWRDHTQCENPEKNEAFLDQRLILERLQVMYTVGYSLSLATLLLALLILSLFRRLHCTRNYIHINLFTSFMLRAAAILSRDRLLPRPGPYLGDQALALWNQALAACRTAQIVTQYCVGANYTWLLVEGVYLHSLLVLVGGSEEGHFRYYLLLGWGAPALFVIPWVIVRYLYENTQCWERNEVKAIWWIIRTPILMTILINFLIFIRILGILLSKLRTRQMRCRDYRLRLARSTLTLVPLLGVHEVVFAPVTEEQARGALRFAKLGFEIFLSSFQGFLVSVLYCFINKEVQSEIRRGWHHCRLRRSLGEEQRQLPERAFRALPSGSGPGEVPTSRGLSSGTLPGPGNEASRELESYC

[4] = molecular target: T1, human GLP-1 receptor (human), P43220; experiment: radioligand competition SPA, HEK293 membranes
[5] = molecular target: human glucagon receptor (human), P47871; experiment: radioligand competition SPA, HEK293 membranes
[6] = molecular target: T2, human GIP receptor (human), P48546; experiment: radioligand competition SPA, HEK293 membranes

Sequence of human glucagon receptor (human), P47871 (P47871 26-477): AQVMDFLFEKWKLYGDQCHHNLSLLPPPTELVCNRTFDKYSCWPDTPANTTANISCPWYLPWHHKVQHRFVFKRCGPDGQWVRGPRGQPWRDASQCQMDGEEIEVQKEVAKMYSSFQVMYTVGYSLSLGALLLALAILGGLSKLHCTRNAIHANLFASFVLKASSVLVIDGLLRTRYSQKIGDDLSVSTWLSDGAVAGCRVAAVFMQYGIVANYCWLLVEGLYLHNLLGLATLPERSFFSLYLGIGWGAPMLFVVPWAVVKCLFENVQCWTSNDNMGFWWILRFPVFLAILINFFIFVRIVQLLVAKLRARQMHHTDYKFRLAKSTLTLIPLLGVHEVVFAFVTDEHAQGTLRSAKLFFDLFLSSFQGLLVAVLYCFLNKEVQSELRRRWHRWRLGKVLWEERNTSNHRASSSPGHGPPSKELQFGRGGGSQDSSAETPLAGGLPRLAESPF

B1: Example 9 (peptide)
peptide: Y[Aib]QGTFTSDYSI[αMeL]LDKK([γGlu-γGlu-C20 diacid])AQHAFIEYLLEGGPSSGAPPPS-NH2
modifications: N-terminus assumed
SMILES: CC[C@H](C)[C@H](NC(=O)[C@H](Cc1ccccc1)NC(=O)[C@H](C)NC(=O)[C@H](Cc1c[nH]cn1)NC(=O)[C@H](CCC(N)=O)NC(=O)[C@H](C)NC(=O)[C@H](CCCCNC(=O)CC[C@H](NC(=O)CC[C@H](NC(=O)CCCCCCCCCCCCCCCCCCC(=O)O)C(=O)O)C(=O)O)NC(=O)[C@H](CCCCN)NC(=O)[C@H](CC(=O)O)NC(=O)[C@H](CC(C)C)NC(=O)[C@](C)(CC(C)C)NC(=O)[C@@H](NC(=O)[C@H](CO)NC(=O)[C@H](Cc1ccc(O)cc1)NC(=O)[C@H](CC(=O)O)NC(=O)[C@H](CO)NC(=O)[C@@H](NC(=O)[C@H](Cc1ccccc1)NC(=O)[C@@H](NC(=O)CNC(=O)[C@H](CCC(N)=O)NC(=O)C(C)(C)NC(=O)[C@@H](N)Cc1ccc(O)cc1)[C@@H](C)O)[C@@H](C)O)[C@@H](C)CC)C(=O)N[C@@H](CCC(=O)O)C(=O)N[C@@H](Cc1ccc(O)cc1)C(=O)N[C@@H](CC(C)C)C(=O)N[C@@H](CC(C)C)C(=O)N[C@@H](CCC(=O)O)C(=O)NCC(=O)NCC(=O)N1CCC[C@H]1C(=O)N[C@@H](CO)C(=O)N[C@@H](CO)C(=O)NCC(=O)N[C@@H](C)C(=O)N1CCC[C@H]1C(=O)N1CCC[C@H]1C(=O)N1CCC[C@H]1C(=O)N[C@@H](CO)C(N)=O
B1 was tested, and the cAMP EC50 (0.1% casein) [1] was 0.0931 nM, the cAMP EC50 (FBS and BSA present) [1] was 9.76 nM and the cAMP EC50 (0.1% casein) [2] was 0.139 nM. The cAMP EC50 (FBS and BSA present) [2] was 6.32 nM, the cAMP EC50 (0.1% casein) [3] was 0.0522 nM and the cAMP EC50 (FBS and BSA present) [3] was 4.17 nM. The Ki [4] was 11.5 nM, the Ki [5] was 8.27 nM and the Ki [6] was 0.126 nM.

For Y[Aib]QGTFTSDYSI[αMeL]LDKK([AEEA-AEEA-γGlu-C20 diacid])AQHAFIEYLLEGGPSSGAPPPS-NH2 [Example 7], the cAMP EC50 (0.1% casein) [1] was 0.109 nM, the cAMP EC50 (FBS and BSA present) [1] was 15.5 nM and the cAMP EC50 (0.1% casein) [2] was 0.18 nM. It also gave a cAMP EC50 (FBS and BSA present) [2] of 14.2 nM, a cAMP EC50 (0.1% casein) [3] of 0.0798 nM and a cAMP EC50 (FBS and BSA present) [3] of 4.38 nM. The Ki [4] was 21.4 nM, the Ki [5] was 16.3 nM and the Ki [6] was 0.11 nM.

B2: Example 5 (peptide)
peptide: Y[Aib]QGTFTSDYSI[αMeL]LDKK([AEEA-AEEA-γGlu-C20 diacid])AAQAFIEYLLE[Aib]GPSSGAPPPS-NH2
modifications: N-terminus assumed
SMILES: CC[C@H](C)[C@H](NC(=O)[C@H](Cc1ccccc1)NC(=O)[C@H](C)NC(=O)[C@H](CCC(N)=O)NC(=O)[C@H](C)NC(=O)[C@H](C)NC(=O)[C@H](CCCCNC(=O)COCCOCCNC(=O)COCCOCCNC(=O)CC[C@H](NC(=O)CCCCCCCCCCCCCCCCCCC(=O)O)C(=O)O)NC(=O)[C@H](CCCCN)NC(=O)[C@H](CC(=O)O)NC(=O)[C@H](CC(C)C)NC(=O)[C@](C)(CC(C)C)NC(=O)[C@@H](NC(=O)[C@H](CO)NC(=O)[C@H](Cc1ccc(O)cc1)NC(=O)[C@H](CC(=O)O)NC(=O)[C@H](CO)NC(=O)[C@@H](NC(=O)[C@H](Cc1ccccc1)NC(=O)[C@@H](NC(=O)CNC(=O)[C@H](CCC(N)=O)NC(=O)C(C)(C)NC(=O)[C@@H](N)Cc1ccc(O)cc1)[C@@H](C)O)[C@@H](C)O)[C@@H](C)CC)C(=O)N[C@@H](CCC(=O)O)C(=O)N[C@@H](Cc1ccc(O)cc1)C(=O)N[C@@H](CC(C)C)C(=O)N[C@@H](CC(C)C)C(=O)N[C@@H](CCC(=O)O)C(=O)NC(C)(C)C(=O)NCC(=O)N1CCC[C@H]1C(=O)N[C@@H](CO)C(=O)N[C@@H](CO)C(=O)NCC(=O)N[C@@H](C)C(=O)N1CCC[C@H]1C(=O)N1CCC[C@H]1C(=O)N1CCC[C@H]1C(=O)N[C@@H](CO)C(N)=O
With B2 the cAMP EC50 (0.1% casein) [1] was 0.147 nM, the cAMP EC50 (FBS and BSA present) [1] was 22.3 nM and the cAMP EC50 (0.1% casein) [2] was 0.0226 nM. It also gave a cAMP EC50 (FBS and BSA present) [2] of 1.47 nM, a cAMP EC50 (0.1% casein) [3] of 0.0757 nM and a cAMP EC50 (FBS and BSA present) [3] of 4.86 nM. The Ki [4] was 36.7 nM, the Ki [5] was 0.422 nM and the Ki [6] was 0.179 nM.

Y[Aib]QGTFTSDYSI[αMeL]LDKK([AEEA-γGlu-C20 diacid])AQHAFIEYLLEGGPSSGAPPPS-NH2 [Example 10] was tested, and the cAMP EC50 (0.1% casein) [1] was 0.143 nM, the cAMP EC50 (FBS and BSA present) [1] was 19.3 nM and the cAMP EC50 (0.1% casein) [2] was 0.123 nM. The cAMP EC50 (FBS and BSA present) [2] was 8.42 nM, the cAMP EC50 (0.1% casein) [3] was 0.0928 nM and the cAMP EC50 (FBS and BSA present) [3] was 4.3 nM. It also gave a Ki [4] of 12 nM, a Ki [5] of 7.37 nM and a Ki [6] of 0.118 nM.

B3: Example 4 (peptide)
peptide: Y[Aib]QGTFTSDYSILLDKK([AEEA-γGlu-C20 diacid])AQ[Aib]AFIEYLLA[Aib]GPSSGAPPPS-NH2
modifications: N-terminus assumed
SMILES: CC[C@H](C)[C@H](NC(=O)[C@H](Cc1ccccc1)NC(=O)[C@H](C)NC(=O)C(C)(C)NC(=O)[C@H](CCC(N)=O)NC(=O)[C@H](C)NC(=O)[C@H](CCCCNC(=O)COCCOCCNC(=O)CC[C@H](NC(=O)CCCCCCCCCCCCCCCCCCC(=O)O)C(=O)O)NC(=O)[C@H](CCCCN)NC(=O)[C@H](CC(=O)O)NC(=O)[C@H](CC(C)C)NC(=O)[C@H](CC(C)C)NC(=O)[C@@H](NC(=O)[C@H](CO)NC(=O)[C@H](Cc1ccc(O)cc1)NC(=O)[C@H](CC(=O)O)NC(=O)[C@H](CO)NC(=O)[C@@H](NC(=O)[C@H](Cc1ccccc1)NC(=O)[C@@H](NC(=O)CNC(=O)[C@H](CCC(N)=O)NC(=O)C(C)(C)NC(=O)[C@@H](N)Cc1ccc(O)cc1)[C@@H](C)O)[C@@H](C)O)[C@@H](C)CC)C(=O)N[C@@H](CCC(=O)O)C(=O)N[C@@H](Cc1ccc(O)cc1)C(=O)N[C@@H](CC(C)C)C(=O)N[C@@H](CC(C)C)C(=O)N[C@@H](C)C(=O)NC(C)(C)C(=O)NCC(=O)N1CCC[C@H]1C(=O)N[C@@H](CO)C(=O)N[C@@H](CO)C(=O)NCC(=O)N[C@@H](C)C(=O)N1CCC[C@H]1C(=O)N1CCC[C@H]1C(=O)N1CCC[C@H]1C(=O)N[C@@H](CO)C(N)=O
B3 showed a cAMP EC50 (0.1% casein) [1] of 0.18 nM, a cAMP EC50 (FBS and BSA present) [1] of 10.4 nM and a cAMP EC50 (0.1% casein) [2] of 0.0674 nM. For the same binder, the cAMP EC50 (FBS and BSA present) [2] was 2.49 nM, the cAMP EC50 (0.1% casein) [3] was 0.0648 nM and the cAMP EC50 (FBS and BSA present) [3] was 1.55 nM. The Ki [4] was 3.54 nM, the Ki [5] was 2.55 nM and the Ki [6] was 0.0374 nM.

Y[Aib]QGTFTSDYSI[αMeL]LDKK([AEEA-AEEA-γGlu-C20 diacid])AAQAFIEYLLEGGPSSGAPPPS-NH2 [Example 6] was tested, and the cAMP EC50 (0.1% casein) [1] was 0.142 nM, the cAMP EC50 (FBS and BSA present) [1] was 21.2 nM and the cAMP EC50 (0.1% casein) [2] was 0.0282 nM. For the same binder, the cAMP EC50 (FBS and BSA present) [2] was 1.99 nM, the cAMP EC50 (0.1% casein) [3] was 0.274 nM and the cAMP EC50 (FBS and BSA present) [3] was 7.41 nM. It also gave a Ki [4] of 36.7 nM, a Ki [5] of 0.835 nM and a Ki [6] of 0.249 nM.

B4: Example 8 (peptide)
peptide: Y[Aib]QGTFTSDYSILLDKK([AEEA-AEEA-γGlu-C20 diacid])AQ[αMeK]AFIEYLLEGGPSSGAPPPS-NH2
modifications: N-terminus assumed
SMILES: CC[C@H](C)[C@H](NC(=O)[C@H](Cc1ccccc1)NC(=O)[C@H](C)NC(=O)[C@](C)(CCCCN)NC(=O)[C@H](CCC(N)=O)NC(=O)[C@H](C)NC(=O)[C@H](CCCCNC(=O)COCCOCCNC(=O)COCCOCCNC(=O)CC[C@H](NC(=O)CCCCCCCCCCCCCCCCCCC(=O)O)C(=O)O)NC(=O)[C@H](CCCCN)NC(=O)[C@H](CC(=O)O)NC(=O)[C@H](CC(C)C)NC(=O)[C@H](CC(C)C)NC(=O)[C@@H](NC(=O)[C@H](CO)NC(=O)[C@H](Cc1ccc(O)cc1)NC(=O)[C@H](CC(=O)O)NC(=O)[C@H](CO)NC(=O)[C@@H](NC(=O)[C@H](Cc1ccccc1)NC(=O)[C@@H](NC(=O)CNC(=O)[C@H](CCC(N)=O)NC(=O)C(C)(C)NC(=O)[C@@H](N)Cc1ccc(O)cc1)[C@@H](C)O)[C@@H](C)O)[C@@H](C)CC)C(=O)N[C@@H](CCC(=O)O)C(=O)N[C@@H](Cc1ccc(O)cc1)C(=O)N[C@@H](CC(C)C)C(=O)N[C@@H](CC(C)C)C(=O)N[C@@H](CCC(=O)O)C(=O)NCC(=O)NCC(=O)N1CCC[C@H]1C(=O)N[C@@H](CO)C(=O)N[C@@H](CO)C(=O)NCC(=O)N[C@@H](C)C(=O)N1CCC[C@H]1C(=O)N1CCC[C@H]1C(=O)N1CCC[C@H]1C(=O)N[C@@H](CO)C(N)=O
Binder B4 has a cAMP EC50 (0.1% casein) [1] of 0.117 nM, a cAMP EC50 (FBS and BSA present) [1] of 9.39 nM and a cAMP EC50 (0.1% casein) [2] of 0.12 nM. The cAMP EC50 (FBS and BSA present) [2] was 6.24 nM, the cAMP EC50 (0.1% casein) [3] was 0.114 nM and the cAMP EC50 (FBS and BSA present) [3] was 2.23 nM. The Ki [4] was 29.4 nM, the Ki [5] was 30.4 nM and the Ki [6] was 0.0958 nM.
